Data: patent publication US20250237662A1

What was measured:
[1] = biological target: drug: a monoclonal antibody of human IgG4 isotype (PandA assay); test: PandA assay, mAb 1 ug/ml in monkey plasma
[2] = biological target: drug: a monoclonal antibody of human IgG4 isotype (PandA assay); test: PandA assay (PEG precipitation, acid dissociation, MSD plate, sulfo-TAG-drug), mAb 5 ug/ml in monkey plasma
[3] = biological target: drug: a monoclonal antibody of human IgG4 isotype (PandA assay); test: PandA assay, monkey matrix, mAb 5 ug/ml
[4] = biological target: humanized development candidate monoclonal antibody IgG4 (hIgG4); test: Gyrolab, mAb as capture, hIgG4 1.6 ng/ml, against the blank
[5] = biological target: cynomolgus monkey IgG (cynoIgG); test: direct ELISA, cynoIgG coated (hIgG4/CynoIgG screen), B-cell culture medium
[6] = biological target: humanized therapeutic monoclonal antibody IgG1 (hIgG1); test: SPR (Biacore T200), mAb captured by anti-rabbit mAb on CM5, antigen 80-0 nM, 1:1 fit
[7] = biological target: internal research reagent human Fab (hFab); test: as above
[8] = biological target: humanized development candidate monoclonal antibody IgG4 (hIgG4); test: as above
[9] = biological target: humanized development candidate monoclonal antibody IgG4 (hIgG4); test: Gyrolab, mAb as capture, hIgG4 5000 ng/ml
[10] = biological target: humanized development candidate monoclonal antibody IgG4 (hIgG4); test: Gyrolab, mAb as capture, hIgG4 8 ng/ml
[11] = biological target: humanized development candidate monoclonal antibody IgG4 (hIgG4); test: Gyrolab, mAb as capture, hIgG4 200 ng/ml
[12] = biological target: drug: a monoclonal antibody of human IgG4 isotype (PandA assay); test: PandA assay, signal to noise against the negative control
[13] = biological target: humanized development candidate monoclonal antibody IgG4 (hIgG4); test: ELISA, medium of transfected HEK293F; signal on hIgG4 over signal on cynoIgG
[14] = biological target: humanized development candidate monoclonal antibody IgG4 (hIgG4); test: Gyrolab, mAb as capture, hIgG4 0.32 ng/ml, against the blank
[15] = biological target: humanized therapeutic monoclonal antibody IgG1 (hIgG1); test: ELISA, medium of transfected HEK293F; signal on hIgG1 over signal on cynoIgG
[16] = biological target: drug: a monoclonal antibody of human IgG4 isotype (PandA assay); test: PandA assay, monkey matrix, mAb 0.75 ug/ml
[17] = biological target: humanized development candidate monoclonal antibody IgG4 (hIgG4); test: Gyrolab, mAb as capture, hIgG4 40 ng/ml, against the blank
[18] = biological target: humanized development candidate monoclonal antibody IgG4 (hIgG4); test: Gyrolab, mAb as capture, hIgG4 1.6 ng/ml
[19] = biological target: humanized development candidate monoclonal antibody IgG4 (hIgG4); test: Gyrolab, mAb as capture, hIgG4 0.32 ng/ml
[20] = biological target: humanized development candidate monoclonal antibody IgG4 (hIgG4); test: Gyrolab, mAb as capture, hIgG4 1000 ng/ml
[21] = biological target: humanized development candidate monoclonal antibody IgG4 (hIgG4); test: Gyrolab, mAb as capture, hIgG4 8 ng/ml, against the blank
[22] = biological target: drug: a monoclonal antibody of human IgG4 isotype (PandA assay); test: PandA assay, mAb 0.75 ug/ml in monkey plasma
[23] = biological target: cynomolgus monkey IgG (cynoIgG); test: direct ELISA, cynoIgG coated (hIgG1/CynoIgG screen), B-cell culture medium
[24] = biological target: humanized development candidate monoclonal antibody IgG4 (hIgG4); test: Gyrolab, mAb as capture, hIgG4 200 ng/ml, against the blank
[25] = biological target: drug: a monoclonal antibody of human IgG4 isotype (PandA assay); test: PandA assay, mAb 0.5 ug/ml in monkey plasma
[26] = biological target: humanized development candidate monoclonal antibody IgG4 (hIgG4); test: Gyrolab, mAb as capture, hIgG4 5000 ng/ml, against the blank
[27] = biological target: humanized development candidate monoclonal antibody IgG4 (hIgG4); test: Gyrolab, mAb as capture, hIgG4 1000 ng/ml, against the blank
[28] = biological target: drug: a monoclonal antibody of human IgG4 isotype (PandA assay); test: PandA assay, monkey matrix, mAb 0.5 ug/ml
[29] = biological target: humanized development candidate monoclonal antibody IgG4 (hIgG4); test: direct ELISA, hIgG4 coated, B-cell culture medium
[30] = biological target: humanized therapeutic monoclonal antibody IgG1 (hIgG1); test: direct ELISA, hIgG1 coated, B-cell culture medium
[31] = biological target: humanized development candidate monoclonal antibody IgG4 (hIgG4); test: Gyrolab, mAb as capture, hIgG4 40 ng/ml
[32] = biological target: drug: a monoclonal antibody of human IgG4 isotype (PandA assay); test: PandA assay, monkey matrix, mAb 1 ug/ml

ECL Signal [1]: 426 | ECL Signal [2]: 2180 | S/N (monkey) [3]: 15.7 | S/B [4]: 1.4 | OD450 [5]: 0.124 OD450 | Kd [6]: 0.277 nM | koff [6]: 3.8e-05 s⁻¹ | kon [6]: 137000 M⁻¹ s⁻¹ | Kd [7]: 0.55 nM | koff [7]: 0.00146 s⁻¹ | kon [7]: 2.65e+06 M⁻¹ s⁻¹ | Kd [8]: 0.1 nM | koff [8]: 1.36e-05 s⁻¹ | kon [8]: 135000 M⁻¹ s⁻¹ | Av. Resp. [9]: 317 | Av. Resp. [10]: 6.6 | Av. Resp. [11]: 87.7 | S/N [12]: 1.98 | ELISA signal ratio hIgG4/CynoIgG [13]: 7.91 | S/B [14]: 1 | ELISA signal ratio hIgG1/CynoIgG [15]: 7.72 | S/N (monkey) [16]: 2.51 | S/B [17]: 11.1 | Av. Resp. [18]: 3 | Av. Resp. [19]: 2.1 | Av. Resp. [20]: 232 | S/B [21]: 3.2 | ECL Signal [22]: 323 | OD450 [23]: 0.107 OD450 | S/B [24]: 41.7 | ECL Signal [25]: 188 | S/B [26]: 151 | S/B [27]: 110 | S/N (monkey) [28]: 1.93 | OD450 [29]: 1.29 OD450 | OD450 [30]: 1.24 OD450 | Av. Resp. [31]: 23.4 | S/N (monkey) [32]: 3.39
B1: rabbit anti-human IgG monoclonal antibody clone 2C5 (antibody, V domains shown)
VH: QEQLVESGGDLVKPGASLTLTCTASGFSFSSGYYMCWVRQAPGKGLEWIACIYGGALTNTYYATWAKGRFTISKTSSTTVTLQMTSLTAADTATYFCARDLGAAGDAYNLWGPGTLVTVSS
VL: ASDMTQTPASVSAAVGGTVTIKCQASESIYSGLAWYQQKPGQPPKLLIFDASDLASGVPSRFKGSRSETEYTLTISDLECADAATYYCQCTDRNSITSYAFGGGTEVVVKG
